Entries after “also recorded” stand apart in the source; their conditions may differ.
Tests used:
KMH2 (PSMA-low) cells = test: JNG NFAT-GFP induction on co-culture with KMH2
Huh-7 cells = test: JNG NFAT-GFP induction on co-culture with Huh-7

B1: 21887 (protein)
chain: MALPVTALLLPLALLLHAARPDIQMTQSPSSLSASVGDRVTITCKASQDVGTAVDWYQQKPGKAPKLLIYWASTRHTGVPSRFSGSGSGTDFTLTISSLQPEDFATYYCQQYNSYPLTFGQGTKVEIKRLEPSEAEISHTQKATLVCLATGFYPDHVELSWWVNGKEVHSGVCTDPQPLKEQPALNDSRYCLSSRLRVSATFWQNPRNHFRCQVQFYGLSENDEWTQDRAKPVTQIVSAEAWGRADCGFTSESYQQGVLSATILYEILLGKATLYAVLVSALVLMAMVKRKDSRGRAKRSGSGATNFSLLKQAGDVEENPGPTSMDWIWRILFLVGAATGAHSFEVQLVESGGGLVQPGGSLRLSCAASGYTFTEYTIHWVRQAPGKGLEWVANINPNNGGTTYNQKFEDRFTISRDNSKNTLYLQMNSLRAEDTAVYYCARGWNFDYWGQGTLVTVSSTRDKSVCLFTDFDSQTNVSQSKDSDVYITDKCVLDMRSMDFKSNSAVAWSNKSDFACANAFNNSIIPEDTFFPSPESSCDVKLVEKSFETDTNLNFQNLSVIGFRILLLKVAGFNLLMTLRLWSSRAKRSGSGVKQTLNFDLLKLAGDVESNPGPSRGHMTEYKPTVRLATRDDVPRAVRTLAAAFADYPATRHTVDPDRHIERVTELQELFLTRVGLDIGKVWVADDGAAVAVWTTPESVEAGAVFAEIGPRMAELSGSRLAAQQQMEGLLAPHRPKEPAWFLATVGVSPDHQGKGLGSAVVLPGVEAAERAGVPAFLETSAPRNLPFYERLGFTVTADVEVPEGPRTWCMTRKPGA
B1 was tested, and the “NFAT-GFP ASSAY: KMH2” value (KMH2 (PSMA-low) cells) was “negligible GFP induction” and the “NFAT-GFP ASSAY: Huh-7” value (Huh-7 cells) was “negligible GFP induction”.

B2: 21884 (protein)
chain: MALPVTALLLPLALLLHAARPDIQMTQSPSSLSASVGDRVTITCKASQDVGTAVDWYQQKPGKAPKLLIYWASTRHTGVPSRFSGSGSGTDFTLTISSLQPEDFATYYCQQYNSYPLTFGQGTKVEIKRLETIFLPSIAETKLQKAGTYLCLLEKFFPDVIKIHWQEKKSNTILGSQEGNTMKTNDTYMKFSWLTVPEKSLDKEHRCIVRHENNKNGVDQEIIFPPIKTDVITMDPKDNCSKDANDTLLLQLTNTSAYYMYLLLLLKSVVYFAIITCCLLRRTAFCCNGEKSRAKRSGSGATNFSLLKQAGDVEENPGPTSMDWIWRILFLVGAATGAHSFEVQLVESGGGLVQPGGSLRLSCAASGYTFTEYTIHWVRQAPGKGLEWVANINPNNGGTTYNQKFEDRFTISRDNSKNTLYLQMNSLRAEDTAVYYCARGWNFDYWGQGTLVTVSSTRPHTKPSVFVMKNGTNVACLVKEFYPKDIRINLVSSKKITEFDPAIVISPSGKYNAVKLGKYEDSNSVTCSVQHDNKTVHSTDFEVKTDSTDHVKPKETENTKQPSKSCHKPKAIVHTEKVNMMSLTVLGLRMLFAKTVAVNFLLTAKLFFLRAKRSGSGVKQTLNFDLLKLAGDVESNPGPSRGHMTEYKPTVRLATRDDVPRAVRTLAAAFADYPATRHTVDPDRHIERVTELQELFLTRVGLDIGKVWVADDGAAVAVWTTPESVEAGAVFAEIGPRMAELSGSRLAAQQQMEGLLAPHRPKEPAWFLATVGVSPDHQGKGLGSAVVLPGVEAAERAGVPAFLETSAPRNLPFYERLGFTVTADVEVPEGPRTWCMTRKPGA
For B2, the “NFAT-GFP ASSAY: KMH2” value (KMH2 (PSMA-low) cells) was “negligible GFP induction” and the “NFAT-GFP ASSAY: Huh-7” value (Huh-7 cells) was “negligible GFP induction”.

B3: 21886 (protein)
chain: MALPVTALLLPLALLLHAARPDIQMTQSPSSLSASVGDRVTITCKASQDVGTAVDWYQQKPGKAPKLLIYWASTRHTGVPSRFSGSGSGTDFTLTISSLQPEDFATYYCQQYNSYPLTFGQGTKVEIKRLEAEISHTQKATLVCLATGFYPDHVELSWWVNGKEVHSGVCTDPQPLKEQPALNDSRYCLSSRLRVSATFWQNPRNHFRCQVQFYGLSENDEWTQDRAKPVTQIVSAEAWGRADCGFTSESYQQGVLSATILYEILLGKATLYAVLVSALVLMAMVKRKDSRGRAKRSGSGATNFSLLKQAGDVEENPGPTSMDWIWRILFLVGAATGAHSFEVQLVESGGGLVQPGGSLRLSCAASGYTFTEYTIHWVRQAPGKGLEWVANINPNNGGTTYNQKFEDRFTISRDNSKNTLYLQMNSLRAEDTAVYYCARGWNFDYWGQGTLVTVSSTRDKSVCLFTDFDSQTNVSQSKDSDVYITDKCVLDMRSMDFKSNSAVAWSNKSDFACANAFNNSIIPEDTFFPSPESSCDVKLVEKSFETDTNLNFQNLSVIGFRILLLKVAGFNLLMTLRLWSSRAKRSGSGVKQTLNFDLLKLAGDVESNPGPSRGHMTEYKPTVRLATRDDVPRAVRTLAAAFADYPATRHTVDPDRHIERVTELQELFLTRVGLDIGKVWVADDGAAVAVWTTPESVEAGAVFAEIGPRMAELSGSRLAAQQQMEGLLAPHRPKEPAWFLATVGVSPDHQGKGLGSAVVLPGVEAAERAGVPAFLETSAPRNLPFYERLGFTVTADVEVPEGPRTWCMTRKPGA
In the case of B3, the “NFAT-GFP ASSAY: KMH2” value (KMH2 (PSMA-low) cells) is reported as “negligible GFP induction; also recorded: negligible activity” and the “NFAT-GFP ASSAY: Huh-7” value (Huh-7 cells) is reported as “negligible GFP induction; also recorded: negligible activity”.

B4: 21892 (protein)
chain: MALPVTALLLPLALLLHAARPDIQMTQSPSSLSASVGDRVTITCKASQDVGTAVDWYQQKPGKAPKLLIYWASTRHTGVPSRFSGSGSGTDFTLTISSLQPEDFATYYCQQYNSYPLTFGQGTKVEIKRLEDLKNVFPPEVAVFEPSEAEISHTQKATLVCLATGFYPDHVELSWWVNGKEVHSGVCTDPQPLKEQPALNDSRYCLSSRLRVSATFWQNPRNHFRCQVQFYGLSENDEWTQDRAKPVTQIVSAEAWGRADCGFTSESYQQGVLSATILYEILLGKATLYAVLVSALVLMAMVKRKDSRGRAKRSGSGATNFSLLKQAGDVEENPGPTSMDWIWRILFLVGAATGAHSFEVQLVESGGGLVQPGGSLRLSCAASGYTFTEYTIHWVRQAPGKGLEWVANINPNNGGTTYNQKFEDRFTISRDNSKNTLYLQMNSLRAEDTAVYYCARGWNFDYWGQGTLVTVSSTRIQNPDPAVYQLRDSKSSDKSVCLFTDFDSQTNVSQSKDSDVYITDKCVLDMRSMDFKSNSAVAWSNKSDFACANAFNNSIIPEDTFFPSPESSCDVKLVEKSFETDTNLNFQNLSVIGFRILLLKVAGFNLLMTLRLWSSRAKRSGSGVKQTLNFDLLKLAGDVESNPGPSRGHMTEYKPTVRLATRDDVPRAVRTLAAAFADYPATRHTVDPDRHIERVTELQELFLTRVGLDIGKVWVADDGAAVAVWTTPESVEAGAVFAEIGPRMAELSGSRLAAQQQMEGLLAPHRPKEPAWFLATVGVSPDHQGKGLGSAVVLPGVEAAERAGVPAFLETSAPRNLPFYERLGFTVTADVEVPEGPRTWCMTRKPGA
With B4 the “NFAT-GFP ASSAY: KMH2” value (KMH2 (PSMA-low) cells) was “negligible GFP induction” and the “NFAT-GFP ASSAY: Huh-7” value (Huh-7 cells) was “negligible GFP induction”.
